This note sets out measurements from US20190002889.

Data set [1] deals with T1, RspWYL1 (WP_046441785.1, Ruminococcus sp. N15.MGS-57 WYL1 accessory protein).
T1 sequence: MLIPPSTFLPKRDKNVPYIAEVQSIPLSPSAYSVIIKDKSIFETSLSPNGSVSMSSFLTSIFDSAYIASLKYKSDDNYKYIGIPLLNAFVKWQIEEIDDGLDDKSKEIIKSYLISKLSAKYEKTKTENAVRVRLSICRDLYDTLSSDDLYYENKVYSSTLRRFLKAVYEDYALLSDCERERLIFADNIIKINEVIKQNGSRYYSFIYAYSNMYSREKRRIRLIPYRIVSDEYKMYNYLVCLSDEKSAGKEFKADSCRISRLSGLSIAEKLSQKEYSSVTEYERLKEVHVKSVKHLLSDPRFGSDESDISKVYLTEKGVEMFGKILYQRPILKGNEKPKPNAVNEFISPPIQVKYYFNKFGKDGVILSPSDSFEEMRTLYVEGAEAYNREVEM

Data set [2] concerns the target T2, RspWYL1 (WP_046441785.1, Ruminococcus sp. N15.MGS-57 WYL1 accessory protein).
T2 chain: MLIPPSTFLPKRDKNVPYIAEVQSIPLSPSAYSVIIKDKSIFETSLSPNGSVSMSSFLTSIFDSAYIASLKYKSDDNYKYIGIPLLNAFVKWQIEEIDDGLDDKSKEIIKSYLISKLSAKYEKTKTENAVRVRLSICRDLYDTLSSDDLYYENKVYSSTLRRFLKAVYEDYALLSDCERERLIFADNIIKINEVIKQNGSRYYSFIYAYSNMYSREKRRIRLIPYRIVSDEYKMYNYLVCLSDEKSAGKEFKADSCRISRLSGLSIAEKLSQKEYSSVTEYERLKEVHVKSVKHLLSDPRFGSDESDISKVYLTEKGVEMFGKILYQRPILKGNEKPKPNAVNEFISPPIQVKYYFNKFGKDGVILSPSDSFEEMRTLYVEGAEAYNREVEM

On to Bergeyella zoohelcum Cas13b (BzCas13b), for which the “in vitro ssRNA cleavage activity (denaturing gel)” value in data set [1] is listed as “RspWYL1 enhanced the activity of BzCas13b”.

B1: EsCas13d (WP_005358205.1, Eubacterium siraeum DSM 15702 Type VI-D CRISPR-Cas effector) (protein)
chain: MGKKIHARDLREQRKTDRTEKFADQNKKREAERAVPKKDAAVSVKSVSSVSSKKDNVTKSMAKAAGVKSVFAVGNTVYMTSFGRGNDAVLEQKIVDTSHEPLNIDDPAYQLNVVTMNGYSVTGHRGETVSAVTDNPLRRFNGRKKDEPEQSVPTDMLCLKPTLEKKFFGKEFDDNIHIQLIYNILDIEKILAVYSTNAIYALNNMSADENIENSDFFMKRTTDETFDDFEKKKESTNSREKADFDAFEKFIGNYRLAYFADAFYVNKKNPKGKAKNVLREDKELYSVLTLIGKLRHWCVHSEEGRAEFWLYKLDELKDDFKNVLDVVYNRPVEEINNRFIENNKVNIQILGSVYKNTDIAELVRSYYEFLITKKYKNMGFSIKKLRESMLEGKGYADKEYDSVRNKLYQMTDFILYTGYINEDSDRADDLVNTLRSSLKEDDKTTVYCKEADYLWKKYRESIREVADALDGDNIKKLSKSNIEIQEDKLRKCFISYADSVSEFTKLIYLLTRFLSGKEINDLVTTLINKFDNIRSFLEIMDELGLDRTFTAEYSFFEGSTKYLAELVELNSFVKSCSFDINAKRTMYRDALDILGIESDKTEEDIEKMIDNILQIDANGDKKLKKNNGLRNFIASNVIDSNRFKYLVRYGNPKKIRETAKCKPAVRFVLNEIPDAQIERYYEACCPKNTALCSANKRREKLADMIAEIKFENFSDAGNYQKANVTSRTSEAEIKRKNQAIIRLYLTVMYIMLKNLVNVNARYVIAFHCVERDTKLYAESGLEVGNIEKNKTNLTMAVMGVKLENGIIKTEFDKSFAENAANRYLRNARWYKLILDNLKKSERAVVNEFRNTVCHLNAIRNININIKEIKEVENYFALYHYLIQKHLENRFADKKVERDTGDFISKLEEHKTYCKDFVKAYCTPFGYNLVRYKNLTIDGLFDKNYPGKDDSDEQK
As to B1, the “targeted and collateral ssRNA nuclease activities (in vitro ssRNA cleavage assay, denaturing gel)” value in data set [2] is “RspWYL1 enhanced the targeted and collateral ssRNA nuclease activities of EsCas13d to a similar extent as observed for RspCas13d”.

B2: RspCas13d (WP_046441786.1, Ruminococcus sp. N15.MGS-57 Type VI-D CRISPR-Cas effector) (protein)
chain: MAKKNKMKPRELREAQKKARQLKAAEINNNAAPAIAAMPAAEVIAPVAEKKKSSVKAAGMKSILVSKNKMYITSFGKGNSAVLEYEVDNNDYNQTQLSSKGSSNIELRGVNEVNITFSSKHGFESGVEINTSNPTHRSGESSPVRGDMLGLKSELEKRFFGKTFDDNIHIQLIYNILDIEKILAVYVTNIVYALNNMLSIKDSESYDDFMGYLSARNTYEVFTHPDKSNLSDKAKGNIKKSFSTFNDLLKTKRLGYFGLEEPKTKDTRVSQAYKKRVYHMLAIVGQIRQSVFHDKSSKLDEDLYSFIDIIDSEYRETLDYLVDERFDSINKGFIQGNKVNISLLIDMMKGYEADDIIRLYYDFIVLKSQKNLGFSIKKLREKMLDEYGFRFKDKQYDSVRSKMYKLMDFLLFCNYYRNDVVAGEALVRKLRFSMTDDEKEGIYADEASKLWGKFRNDFENIADHMNGDVIKELGKADMDFDEKILDSEKKNASDLLYFSKMIYMLTYFLDGKEINDLLTTLISKFDNIKEFLKIMKSSAVDVECELTAGYKLFNDSQRITNELFIVKNIASMRKPASSAKLTMFRDALTILGIDDNITDDRISEILKLKEKGKGIHGLRNFITNNVIESSRFVYLIKYANAQKIRKVAKNEKVVMFVLGGIPDTQIERYYKSCVEFPDMNSSLEVKRSELARMIKNISFDDFKNVKQQAKGRENVAKERAKAVIGLYLTVMYLLVKNLVNVNARYVIAIHCLERDFGLYKEIIPELASKNLKNDYRILSQTLCELCDKSPNLFLKKNERLRKCVEVDINNADSSMTRKYRNCIAHLTVVRELKEYIGDIRTVDSYFSIYHYVMQRCITKRENDTKQEEKIKYEDDLLKNHGYTKDFVKALNSPFGYNIPRFKNLSIEQLFDRNEYLTEK
B2: the “targeted and collateral ssRNA cleavage activity (in vitro ssRNA cleavage assay, denaturing gel)” value in data set [2] was “RspWYL1 increases both the targeted and collateral ssRNA cleavage activity of RspCas13d in a dose-dependent manner, with a molar excess of RspWYL1 yielding the greatest increase in Cas13d activity”.
